Biological target: Rl-SRDI565 sulfoquinovosidase, K375A/K376A variant (RlSQase*) (Rhizobium leguminosarum bv. trifolii SRDI565)
Assay: SEC-MALS

Rl-SRDI565 sulfoquinovosidase, K375A/K376A variant (RlSQase*) (enzyme)
stoichiometry N: 2
